Where a chain is given by its changes, count along the chain named. In names and notes the source's numbering stands.
B1: ADAMTS-13W688X mutant R349A (enzyme, human, UniProt Q76LX8 75-688, looked up)
chain: AAGGILHLELLVAVGPDVFQAHQEDTERYVLTNLNIGAELLRDPSLGAQFRVHLVKMVILTEPEGAPNITANLTSSLLSVCGWSQTINPEDDTDPGHADLVLYITRFDLELPDGNRQVRGVTQLGGACSPTWSCLITEDTGFDLGVTIAHEIGHSFGLEHDGAPGSGCGPSGHVMASDGAAPRAGLAWSPCSRRQLLSLLSAGRARCVWDPPRPQPGSAGHPPDAQPGLYYSANEQCRVAFGPKAVACTFAREHLDMCQALSCHTDPLDQSSCSALLVPLLDGTECGVEKWCSKGRCRSLVELTPIAAVHGRWSSWGPRSPCSRSCGGGVVTRRRQCNNPRPAFGGRACVGADLQAEMCNTQACEKTQLEFMSQQCARTDGQPLRSSPGGASFYHWGAAVPHSQGDALCRHMCRAIGESFIMKRGDSFLDGTRCMPSGPREDGTLSLCVSGSCRTFGCDGRMDSQQVWDRCQVCGGDNSTCSPRKGSFTAGRAREYVTFLTVTPNLTSVYIANHRPLFTHLAVRIGGRYVVAGKMSISPNTTYPSLLEDGRVEYRVALTEDRLPRLEEIRIWGPLQEDADIQVYRRYGEEYGNLTRPDITFTYFQPKPRQAWVW
notes: Disintegrin-like domain mutant; also called R349(11); not shown: C-terminal FLAG tag
B2: ADAMTS-13W688X mutant D635A (protein)
chain: B1 chain with A275R, D561A
B3: ADAMTS-13W688X mutant E634A (protein)
chain: B1 chain with A275R, E560A
B4: ADAMTS-13W688X mutant R498A (enzyme, human, UniProt Q76LX8 75-688, looked up)
chain: B1 chain with A275R, R424A
notes: Cysteine-rich domain mutant; also called R498(29); not shown: C-terminal FLAG tag

Columns and labels:
[1] = molecular target: T1, von Willebrand factor derived from human plasma (human, UniProt P04275 764-2813); assay: ELISA, plasma VWF immobilized on plate, relative to wild type W688X
T1 construct: mature; also called VWF; natural substrate VWF
Protocol: Each of the purified mutants of Example 3 was evaluated for their binding ability to VWF derived from human plasma immobilized on ELISA plate as described in Non-patent reference 8. The concentration was normalized by sandwich ELISA using the anti-human ADAMTS-13 rabbit polyclonal antibody and an HRP labeled form of the anti-FLAGM2 murine monoclonal antibody (SIGMA CORPORATION) as described above and the VWF binding ability per unit concentration was quantified. Finally, the mutants were evaluated for a relative activity as compared to the specific activity of wild type W688X with no alanine substitution, the specific activity of which is 1.

[2] = molecular target: T2, FRETS-VWF73, P04275
T2 chain: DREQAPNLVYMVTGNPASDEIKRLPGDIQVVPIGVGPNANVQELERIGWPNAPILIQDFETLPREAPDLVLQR

[3] = molecular target: immunoglobulin G (IgG) fractions isolated from acquired TTP patients

Binder | binding result [1] | cleaving activity to FRETS-VWF73, relative activity against wild type W688X [2] | cleaving activity to FRETS-VWF73 per 1 min (ΔFU/min) with and without patient antibodies [3]
B1 | binds | led to the significantly reduced enzyme activity | –
B2 | – | – | depending on patient antibody, K608A, E634A and D635A had a sufficient enzymatic activity
B3 | – | – | depending on patient antibody, K608A, E634A and D635A had a sufficient enzymatic activity
B4 | binds | led to the significantly reduced enzyme activity | –

Reference: patent US8685665 (CHEMO SERO THERAPEUTIC RESEARCH INSTITUTE, dated 2014)
